Reference: paper PMC3656841

Molecular target: T1, Bacillus subtilis DNA Ligase D (BsuLigD) (B. subtilis) (UniProt O34398)
T1 sequence: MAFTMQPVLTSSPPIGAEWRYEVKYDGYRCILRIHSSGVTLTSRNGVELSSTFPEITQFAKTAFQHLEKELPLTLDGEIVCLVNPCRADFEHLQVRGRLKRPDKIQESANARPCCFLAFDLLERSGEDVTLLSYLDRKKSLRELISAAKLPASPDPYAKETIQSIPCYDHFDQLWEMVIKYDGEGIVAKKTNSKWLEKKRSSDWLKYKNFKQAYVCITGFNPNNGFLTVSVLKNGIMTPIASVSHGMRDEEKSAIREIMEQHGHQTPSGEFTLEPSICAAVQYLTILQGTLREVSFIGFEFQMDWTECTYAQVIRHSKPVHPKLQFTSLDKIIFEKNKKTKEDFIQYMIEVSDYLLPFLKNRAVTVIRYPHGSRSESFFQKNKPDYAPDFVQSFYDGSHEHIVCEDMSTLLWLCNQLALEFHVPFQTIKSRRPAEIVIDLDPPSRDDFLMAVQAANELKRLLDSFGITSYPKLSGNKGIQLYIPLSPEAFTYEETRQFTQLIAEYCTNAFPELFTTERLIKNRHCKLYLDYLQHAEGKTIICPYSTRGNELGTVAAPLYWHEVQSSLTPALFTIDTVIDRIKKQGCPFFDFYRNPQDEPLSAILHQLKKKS

B1: Bacillus subtilis Ku (BsuKu) (natural protein)
chain: MNRTPSLHTKEKKGFIDMHTMWKGSISFGLVNIPIKLYAATEDKDIKLRSLHKEDHAPIKYEKVCTNCEKTLSPDEIVKGYEYVKGKYVVLTDEDLKSLKQEHEEKAVEIVDFVQLQEIDPIYFNRSYFVGPGDNGTKAYTLLREALRSTGKIGIANMTIRSKQQLAILRVYENCIVMESIHYPDEVRSAAQVPGVPDQSNVNDKELQTAITLIDELTAKFEPEKYEDTYRQALLQRVNDKLENKETAVTPDKAPPREDVIDLVSALQASIDRTRRPNRETPAAAPAQAAEPKGAGDKKQKTTRKKASGTS
Work on B1 yielded a primer usage by BsuLigD (percentage of extended primers against reaction time) on a gapped molecule, 10 ng BsuLigD, 10 µM NTPs, without or with 40 ng of BsuKu of 3 fold.
